Measurements: publication doi:10.1101/2025.07.11.664400 (bioRxiv, 2025)

B1: Reference DNA (dsDNA)
DNA 1: CCATGGCTCCTGAGCTAGCTGCAGTAGCCTAAAGGATGAAACTAGGATCTTATGCTCCAGTTTT
DNA 2: CTGGAGCATAAGATCCTAGTTTCATCCTTTAGGCTACTGCAGCTAGCTCAGGAGCCATGGTTTT
B2: Blunt ended DNA (dsDNA)
DNA 1: CCATGGCTCCTGAGCTAGCTGCAGTAGCCTAAAGGATGAAACTAGGATCTTATGCTCCAG
DNA 2: CTGGAGCATAAGATCCTAGTTTCATCCTTTAGGCTACTGCAGCTAGCTCAGGAGCCATGG

Experiments:
RecBCD [1] = biological target: T1, RecBCD (Escherichia coli, UniProt P08394;P07648;P04993 1-1180;1-1122;1-608); experiment: fluorescence titration
RecBΔNucCD [2] = biological target: T2, RecBΔNucCD (Escherichia coli, UniProt P08394;P07648;P04993 1-929;1-1122;1-608); experiment: fluorescence titration
RecBΔNucCD [3] = biological target: T2, RecBΔNucCD; experiment: fluorescence titration; remark: listed apart in the source
RecBΔNucCD [4] = biological target: T2, RecBΔNucCD; experiment: ITC
RecBCD [5] = biological target: T1, RecBCD; experiment: fluorescence competition
RecBΔNucCD [6] = biological target: T2, RecBΔNucCD; experiment: fluorescence competition
RecBΔNucCD [7] = biological target: T2, RecBΔNucCD; experiment: ITC; remark: listed apart in the source

Binder | Ka (RecBCD [1]) | Ka (RecBΔNucCD [2]) | Ka (RecBΔNucCD [3]) | Ka (RecBΔNucCD [4]) | Ka (RecBCD [5]) | Ka (RecBΔNucCD [6]) | Ka (RecBΔNucCD [7])
B1 | 3.2e+07 M⁻¹ | 1.6e+08 M⁻¹ | > 2e+09 M⁻¹ | – | – | – | –
B2 | – | – | – | 1.2e+07 M⁻¹ | 1.4e+07 M⁻¹ | 4.7e+07 M⁻¹ | > 1e+09 M⁻¹
